The record followed here is the RNAGym collection of RNA variant scans (doi:10.7554/elife.80360).

B1: Hairpin Ribozyme (parent)
chain: GUCCUCUUUCACGUGCGCGUGAAAGAGAGAAGUGAACCAGAGAAACACACGUUGUGGUAUAUUACCUGGUA

The variants in this data set derive from B1. Put plainly: self-cleavage, relative activity (ratio to wild type); higher = more cleavage; co-transcriptional.
For GUCCUCUUUCACGUGCGCGUGAAAGAGAGAAGAGAACCAGAGAAACACACGUUCUGGUAUAUUACCUGGUA [U33A G54C], the self-cleavage was determined as 0.128. The same measure for GUCCUCUUUCACGUGCGCGUGAAAGAGAGAAGAGAACCAGAGAAACACACGUUGUGGUAUAUUCCCUGGUA [U33A A64C]: 0.143; for GUCCUCUUUCACGUGCGCGUGAAAGAGAGAAGAGAACCAGAGAAACACACGUUGUGGUAUAUUUCCUGGUA [U33A A64U]: 0.21. For GUCCUCUUUCACGUGCGCGUGAAAGAGAGAAGCGAACCAGAGAAACACACGUUAUGGUAUAUUACCUGGUA [U33C G54A] the value was 0.0427. For GUCCUCUUUCACGUGCGCGUGAAAGAGAGAAGCGAACCAGAGAAACACACGUUCUGGUAUAUUACCUGGUA [U33C G54C] the value was 0.163; for GUCCUCUUUCACGUGCGCGUGAAAGAGAGAAGCGAACCAGAGAAACACACGUUUUGGUAUAUUACCUGGUA [U33C G54U], 0.141; for GUCCUCUUUCACGUGCGCGUGAAAGAGAGAAUUGAACCAGAGAAACACACGUUGUGGUAUAUUACCUGUUA [G32U G69U], 0.0924.

Consider GUCCUCUUUCACGUGCGCGUGAAAGAGAGAAGCGAACCAGAGAAACACAGGUUGUGGUAUAUUACCUGGUA [U33C C50G], for which the self-cleavage stood at 0.0836. The same measure for GUCCUCUUUCACGUGCGCGUGAAAGAGAGAAGCGAACCAGAGAAACACAUGUUGUGGUAUAUUACCUGGUA [U33C C50U]: 0.0772.

For GUCCUCUUUCACGUGCGCGUGAAAGAGAGAAGAGAACCAGAGAAACACACGUUGUGUUAUAUUACCUGGUA [U33A G57U], the self-cleavage is 0.13. As for GUCCUCUUUCACGUGCGCGUGAAAGAGAGAAGAGAACCAAAGAAACACACGUUGUGGUAUAUUACCUGGUA [U33A G40A], the self-cleavage is 0.108.

Turning to GUCCUCUUUCACGUGCGCGUGAAAGAGAGAAGAGAACCAUAGAAACACACGUUGUGGUAUAUUACCUGGUA [U33A G40U], the self-cleavage came to 0.126. For GUCCUCUUUCACGUGCGCGUGAAAGAGAGAAUUGAACCAGAGAAACACACGUUGUAGUAUAUUACCUGGUA [G32U G56A] the value was 0.117; for GUCCUCUUUCACGUGCGCGUGAAAGAGAGAAGAGAACCCGAGAAACACACGUUGUGGUAUAUUACCUGGUA [U33A A39C], 0.105; for GUCCUCUUUCACGUGCGCGUGAAAGAGAGAAUUGAACCAGAGAAACACACGUUGUGGUAUAUAACCUGGUA [G32U U63A], 0.172.

Consider GUCCUCUUUCACGUGCGCGUGAAAGAGAGAAGAGAACCAGAGAAACACACGUUGUGGUAUAUUACGUGGUA [U33A C66G], for which the self-cleavage is 0.101.

Take GUCCUCUUUCACGUGCGCGUGAAAGAGAGAAGAGAACCAGAGCAACACACGUUGUGGUAUAUUACCUGGUA [U33A A43C]: the self-cleavage is 0.219.

Regarding GUCCUCUUUCACGUGCGCGUGAAAGAGAGAAGAGAACCAGAGUAACACACGUUGUGGUAUAUUACCUGGUA [U33A A43U], the self-cleavage was determined as 0.115.

For the variant GUCCUCUUUCACGUGCGCGUGAAAGAGAGAAGCGAACCAGAGAAACACACGUGGUGGUAUAUUACCUGGUA [U33C U53G], the self-cleavage is 0.299. For GUCCUCUUUCACGUGCGCGUGAAAGAGAGAAUUGAACCAGAGAAACACACGUGGUGGUAUAUUACCUGGUA [G32U U53G] the value was 0.103; for GUCCUCUUUCACGUGCGCGUGAAAGAGAGAAUUGAACCAGAGAAACACACGUCGUGGUAUAUUACCUGGUA [G32U U53C], 0.253. For GUCCUCUUUCACGUGCGCGUGAAAGAGAGAAGCGAACCAGAUAAACACACGUUGUGGUAUAUUACCUGGUA [U33C G42U] the value was 0.115; for GUCCUCUUUCACGUGCGCGUGAAAGAGAGAAGCGAACCAGACAAACACACGUUGUGGUAUAUUACCUGGUA [U33C G42C], 0.0894; for GUCCUCUUUCACGUGCGCGUGAAAGAGAGAAUUGAACCAGAGAAACACACGUUGUGGUAUAUUACCAGGUA [G32U U67A], 0.171. Regarding GUCCUCUUUCACGUGCGCGUGAAAGAGAGAAUUGAACCAGAGAAACACACGUUGUGGUAUAUUACCGGGUA [G32U U67G], the self-cleavage came out at 0.121. For GUCCUCUUUCACGUGCGCGUGAAAGAGAGAAGCGAACCAGAGAAACACACGUUGUGGUAUAUUACGUGGUA [U33C C66G] the value was 0.112; for GUCCUCUUUCACGUGCGCGUGAAAGAGAGAAGCGAACCAGCGAAACACACGUUGUGGUAUAUUACCUGGUA [U33C A41C], 0.114; for GUCCUCUUUCACGUGCGCGUGAAAGAGAGAAGAGAGCCAGAGAAACACACGUUGUGGUAUAUUACCUGGUA [U33A A36G], 0.202.

For GUCCUCUUUCACGUGCGCGUGAAAGAGAGAAGCGAACCAGAGAAACACACGUUGUGCUAUAUUACCUGGUA [U33C G57C], the self-cleavage was found to be 0.0819. For GUCCUCUUUCACGUGCGCGUGAAAGAGAGAAGAGAACCAGAGAAACACACGUUGUGGUAUAAUACCUGGUA [U33A U62A] the value was 0.148; for GUCCUCUUUCACGUGCGCGUGAAAGAGAGAAGAGAACCAGAGAAACACACGUUGUGGUAUAGUACCUGGUA [U33A U62G], 0.174. For GUCCUCUUUCACGUGCGCGUGAAAGAGAGAAGCGAAGCAGAGAAACACACGUUGUGGUAUAUUACCUGGUA [U33C C37G] the value was 0.0717; for GUCCUCUUUCACGUGCGCGUGAAAGAGAGAAGCGAACCAGAGAAACACCCGUUGUGGUAUAUUACCUGGUA [U33C A49C], 0.148; for GUCCUCUUUCACGUGCGCGUGAAAGAGAGAAGCGAACCAGAGAAACACUCGUUGUGGUAUAUUACCUGGUA [U33C A49U], 0.127. For GUCCUCUUUCACGUGCGCGUGAAAGAGAGAAGAGAACCAGAGAAACACACGUUGUGGCAUAUUACCUGGUA [U33A U58C] the value was 0.0877; for GUCCUCUUUCACGUGCGCGUGAAAGAGAGAAUUGAACCAGAGAAACACACGUUGUGGGAUAUUACCUGGUA [G32U U58G], 0.137; for GUCCUCUUUCACGUGCGCGUGAAAGAGAGAAGAGAACCAGAGAAACUCACGUUGUGGUAUAUUACCUGGUA [U33A A47U], 0.127. In the case of GUCCUCUUUCACGUGCGCGUGAAAGAGAGAAGAGAACCAGAGAAACGCACGUUGUGGUAUAUUACCUGGUA [U33A A47G], the self-cleavage is 0.0897.
